Results: the DeepSol protein solubility set

Experiment: soluble on expression in E. coli; label from the status in PepcDB or PDB records

Row | Sequence | soluble on expression in E. coli
1 | MRVGIKVLGCPKNEADCEVLAGVLREGGHEIVFDVKDADVVVLDTCAFIEDAKRESIDEIFSFVDAKDQYGYKLVVKGCLVQRYYEELKKEIPEVDQWIGVADPEEIANAIENGTDLVPDQPETVYRYRKRIDLEERPYAYVKISDGCDRGCTFCSIPSFKGSLRSRSIEDITREVEDLLKEGKKEIILVAQDTTSYGIDLYRKQALPDLLRRLNSLNGEFWIRVMYLHPDHLTEEIISAMLELDKVVKYFDVPVQHGSDKILKLMGRTKSSEELKKMLSSIRERFPDAVLRTSIIVGFPGETEEDFEELKQFVEEIQFDKLGAFVYSDEEGTVAFNLKEKVDPEMAKRRQEELLLLQAEISNSRLDRFVGKKLKFLVEGKEGKFLVGRTWTEAPEVDGVVFVRGKGKIGDFLEVVIKEHDEYDMWGSVILEHHHHHH | soluble
2 | MRVKAMASFSPFDVTLWYSTAAPAPLTEPLSGRIQADVCIVGAGYTGLTTALELAKAGVDVVLLERQEIGFGGSGRNAGHCTPTFTHYSLPELRKMLGETWAERLIERQTRANDRVSHMIRDYRINCEWVQNGYVMGAPHKGAIEEIRRKVETYNAVGAKTRLLGRDEVAAITGSPRFHGGWLHEEAGHLNPLAYARGLGGAVIQERGRIFTGSSVTGCERNATGGWKVRTEHGEVIASKVIFTTGAYTVGGWPKLDQTFKIQRVFVAATQILSEETRRTVLPRNTTIHDGRGDIYVYKYNAEGRIVASMFPMGRRGRDIVYTRQVMSDRLKWLHPQISADIRWDYFWFGELDMQYRTVPRLYDLSPGVVALTGLSGRGVPTGSMLGSILSEWALGKPENELALKVEPLKSAPFYMSFAPAMTLRYYRMRDNIATRLAGMELPPHALEHHHHHH | not soluble
3 | MRVKGPSSRRKKKKILKLAKGYRGQRSRSYRRAKEAVMRALYYQYRDRKLRKREFRRLWIARINAAVRAYGLNYSTFINGLKKAGIELDRKILADMAVRDPQAFEQVVNKVKEALQVQ | soluble
4 | MRVLALSAVFLVASIIGMPAVAKEWQENKSWNAHFTEHKSQGVVVLWNENKQQGFTNNLKRANQAFLPASTFKIPNSLIALDLGVVKDEHQVFKWDGQTRDIATWNRDHNLITAMKYSVVPVYQEFARQIGEARMSKMLHAFDYGNEDISGNVDSFWLDGGIRISATEQISFLRKLYHNKLHVSERSQRIVKQAMLTEANGDYIIRAKTGYSTRIEPKIGWWVGWVELDDNVWFFAMNMDMPTSDGLGLRQAITKEVLKQEKIIP | soluble
5 | MRVLIVKTSSMGDVLHTLPALTDAQQAIPEIKFDWVVEEGFAQIPSWHAAVERVIPVAIRRWRKAWFSAPIKAERKAFREALQAENYDAVIDAQGLVKSAALVTRLAHGVKHGMDWQTAREPLASLFYNRKHHIAKQQHAVERTRELFAKSLGYSKPQTQGDYAIAQHFLTNLPTDAGEYAVFLHATTRDDKHWPEEHWRELIGLLADSGIRIKLPWGAPHEEERAKRLAEGFAYVEVLPKMSLEGVARVLAGAKFVVSVDTGLSHLTAALDRPNITVYGPTDPGLIGGYGENQVECRSTSMSLADLPAQTVFQNLNLEIITNKLTSEIR | not soluble
6 | MRVLVRDLKAHVGQEVELLGFLHWRRDLGRIQFLLLRDRSGVVQVVTGGLKLPLPESALRVRGLVVENAKAPGGLEVQAKEVEVLSPALEPTPVEIPKEEWRANPDTLLEYRYVTLRGEKARAPLKVQAALVRGFRRYLDRQDFTEIFTPKVVRAGAEGGSGLFGVDYFEKRAYLAQSPQLYKQIMVGVFERVYEVAPVWRMEEHHTSRHLNEYLSLDVEMGFIADEEDLMRLEEALLAEMLEEALNTAGDEIRLLGATWPSFPQDIPRLTHAEAKRILKEELGYPVGQDLSEEAERLLGEYAKERWGSDWLFVTRYPRSVRPFYTYPEEDGTTRSFDLLFRGLEITSGGQRIHRYEELLESLKAKGMDPEAFHGYLEVFKYGMPPHGGFAIGAERLTQKLLGLPNVRYARAFPRDRHRLTP | soluble
7 | MRVREPAVAGTFYPKDKEELNKLMDLLCGFEPKEKIKPKAILVPHAGYIYSGKTACEVYKRIEIPEKVVLLGPNHTGLGKPISVYSGDAWETPYGVVEIDGELREKILKYPYANPDEYAHLYEHSLEVQLPFLQRYARREFKILPIVVTFVEYEVAKDFGRFLGEVLKEEDALIVISSDMSHYVPAEEARKKDEILISAMERLNTEELYFKAVQYNITMCGVVPAVVGIESAKVLGATKGIVVDYSNSGDTTGDYSQVVAYLGMIFLLEHHHHHH | not soluble
8 | MRVRNRKGATELLEANPQYVVLNPLEAKAKWRDLFGNDNPIHVEVGSGKGAFVSGMAKQNPDINYIGIDIQKSVLSYALDKVLEVGVPNIKLLWVDGSDLTDYFEDGEIDRLYLNFSDPWPKKRHEKRRLTYKTFLDTFKRILPENGEIHFKTDNRGLFEYSLVSFSQYGMKLNGVWLDLHASDFEGNVMTEYEQKFSNKGQVIYRVEAEF | soluble
9 | MRVSKSKKPTEICPIVSAIAIIGSEPKLLTIRYLLDGPKRFNELQRLTSLSSKTLSKTLKELENHGIVERKIINSHPIVAVYELTDKGKDLKRVFDELRRWGEKFALTKIAVMNSIRVNQEF | soluble
10 | MRYCQFEGCSNTTEKGAYCSEHARKSRKKKKPINVYHHDNKSFYRTKEWQDVADFVYEREGGCCQRCGRFVFGRQAHRHHVIPIKKNEMLKLDPNNIRLLCPKCHVIEENEADEKKVFPSYFKKLEHHHHHH | soluble
11 | MRYFKRRVGSGRVYMVMDNYSPHKTKGTLEVCCRKGIHPVFTPPYSPELNMAEAVFKSLKNYMSNKIFYTIEDVKNCIKQFFEENKYRFNLNAITYLGLDKIEV | soluble
12 | MRYGEKEIKEFDVENMEIWPNDAKNDYIIKITLPEFMCCCPRSGYPDFATIYLEYMPDKFVVELKAIKLYINTFMYRNVSHEASINEIYNTLKDKLKPKWIKVVGDFNPRGNVHTVIECRSDMVVPK | not soluble
13 | MRYHGGLLLGAFDDDGKIIGMSFGYPGFRNGKLYLYSHMAGVVENKKYSNVGYSLKMKQRDLAASMGYDLIAWTFDPFNPLNAYFNISKLGAITRTYIKNFYGVMNDGINRGMRTDRVVAEWWINLQIDRNCEIIDFLNDVDRYSEISTIHESSCLGFYVPPDISYFHKYPDLGSKLKDAAFEVFNALFSKGYAIVAYKRGKSNYFVFKRIENLGKRIFDPIVK | not soluble
14 | MRYIRQLCCVSLLCLSGSAVAANVRLQVEGLSGQLEKNVRAQLSTIESDEVTPDRRFRARVDDAIREGLKALGYYQPTIEFDLRPPPKKGRQVLIAKVTPGVPVLIGGTDVVLRGGARTDKDYLKLLDTRPAIGTVLNQGDYENFKKSLTSIALRKGYFDSEFTKAQLGIALGLHKAFWDIDYNSGERYRFGHVTFEGSQIRDEYLQNLVPFKEGDEYESKDLAELNRRLSATGWFNSVVVAPQFDKARETKVLPLTGVVSPRTENTIETGVGYSTDVGPRVKATWKKPWMNSYGHSLTTSTSISAPEQTLDFSYKMPLLKNPLEQYYLVQGGFKRTDLNDTESDSTTLVASRYWDLSSGWQRAINLRWSLDHFTQGEITNTTMLFYPGVMISRTRSRGGLMPTWGDSQRYSIDYSNTAWGSDVDFSVFQAQNVWIRTLYDRHRFVTRGTLGWIETGDFDKVPPDLRFFAGGDRSIRGYKYKSIAPKYANGDLKGASKLITGSLEYQYNVTGKWWGAVFVDSGEAVSDIRRSDFKTGTGVGVRWESPVGPIKLDFAVPVADKDEHGLQFYIGLGPELLEHHHHHH | not soluble
15 | MRYTDSRKLTPETDANHKTASPQPIRRISSQTLLGPDGKLIIDHDGQEYLLRKTQAGKLLLTK | soluble
16 | MRYWKNSRIKMFEQEDEWISKTQMKKQMNDLQDLGMALTKLSNDTLKKIGLDADLYEAVTAYKKITSNGALKRQAQFIGRLMRDTDPAPIEAFLAKLRGDDAAHNAFLQRVEQARVRLLADDGALTQFMSDFPHADAGKLRTLIRNTKKEQEQNKPPKNFRALFQELKTVMENGDAEI | not soluble
17 | MSAALVAQQVATLREQGFVVVRNFASPPVRQALRELALQHLAQTVDPVEYEADLKYPGAPSSRLAAGGQTVRRLLDAYGRDQRFRDWATQAAIGAFLRAYFQDTPVLSTVHHNCIMTKHPAFGSLTGWHQDIRYWSFSDDDLVSCWLALGDERADNGGLYFVPGSHTASFMPEQYDARKFFRDDLPQNQEWIGRAVCPELQAGDVVFFHCRTLHAARQNATDTVKLSLVHTYHPASCHPLPGTRSAGSPGVPLPLEHHHHHH | soluble
